US20250092426, “CAS ENDONUCLEASES AND RELATED METHODS” (Flagship Pioneering Innovations VII, LLC, published 2025)

Target: T1, CasEnd-21 (synthetic construct)
T1 chain: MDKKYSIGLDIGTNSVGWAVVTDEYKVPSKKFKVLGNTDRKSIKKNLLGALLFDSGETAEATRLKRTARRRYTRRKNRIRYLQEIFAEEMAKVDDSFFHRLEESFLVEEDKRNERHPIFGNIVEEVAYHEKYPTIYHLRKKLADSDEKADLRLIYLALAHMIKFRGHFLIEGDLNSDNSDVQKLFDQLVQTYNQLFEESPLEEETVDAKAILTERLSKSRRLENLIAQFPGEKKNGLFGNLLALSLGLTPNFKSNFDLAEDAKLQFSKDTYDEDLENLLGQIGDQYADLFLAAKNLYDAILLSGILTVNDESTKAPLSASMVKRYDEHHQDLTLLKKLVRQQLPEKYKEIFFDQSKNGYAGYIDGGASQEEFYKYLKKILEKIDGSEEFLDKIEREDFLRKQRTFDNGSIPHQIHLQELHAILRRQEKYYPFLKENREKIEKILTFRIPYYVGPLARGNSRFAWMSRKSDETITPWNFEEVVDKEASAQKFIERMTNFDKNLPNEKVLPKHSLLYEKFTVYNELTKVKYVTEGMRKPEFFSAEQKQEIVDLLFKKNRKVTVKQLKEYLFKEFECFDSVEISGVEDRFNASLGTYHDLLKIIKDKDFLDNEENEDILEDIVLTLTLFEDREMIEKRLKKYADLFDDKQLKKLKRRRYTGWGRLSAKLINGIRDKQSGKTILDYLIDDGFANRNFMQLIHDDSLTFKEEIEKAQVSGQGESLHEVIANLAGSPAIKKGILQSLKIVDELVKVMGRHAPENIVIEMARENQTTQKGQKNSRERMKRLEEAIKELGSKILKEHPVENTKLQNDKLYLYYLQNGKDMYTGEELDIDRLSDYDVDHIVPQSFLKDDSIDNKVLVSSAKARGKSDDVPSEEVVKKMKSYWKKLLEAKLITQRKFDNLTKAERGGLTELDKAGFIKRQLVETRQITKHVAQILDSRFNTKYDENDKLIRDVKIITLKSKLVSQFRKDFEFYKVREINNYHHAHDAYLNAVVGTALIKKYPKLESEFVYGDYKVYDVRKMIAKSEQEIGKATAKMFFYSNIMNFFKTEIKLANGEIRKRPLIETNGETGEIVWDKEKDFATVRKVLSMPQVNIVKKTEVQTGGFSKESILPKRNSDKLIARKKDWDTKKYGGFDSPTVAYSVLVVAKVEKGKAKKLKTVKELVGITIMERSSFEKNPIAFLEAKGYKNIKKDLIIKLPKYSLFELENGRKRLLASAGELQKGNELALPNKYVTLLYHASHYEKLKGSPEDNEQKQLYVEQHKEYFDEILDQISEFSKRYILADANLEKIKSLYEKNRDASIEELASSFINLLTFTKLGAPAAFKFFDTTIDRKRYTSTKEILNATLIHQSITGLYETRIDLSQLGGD
Assay: cell_activity; +++; HEK293T; PAM not stated
How it was run: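 BFP-to-GFP conversion via reverse transcriptase fusion with each Cas endonuclease plus template RNA: 200 ng of each plasmid nucleofected into 250,000 BFP-expressing HEK293T cells (program DS-150). Percent GFP+ cells by flow cytometry at day 4 measured editing.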

B1: BFP-to-GFP template RNA ; BFP reporter protospacer (ssRNA ; dsDNA)
RNA: GCCGAAGCACUGCACGCCGUGUUUUAGAGCUAGAAAUAGCAAGUUAAAAUAAGGCUAGUCCGUUAUCAACUUGAAAAAGUGGCACCGAGUCGGUGCACCCUGACGUACGGCGUGCAGUGCUU
DNA 1: GCCGAAGCACTGCACGCCGT
DNA 2: ACGGCGTGCAGTGCTTCGGC
- activity: ≥ 100 % of reference
